Source: patent publication US20250019439A1 (Adimab, published 2025)

Columns and labels:
ADI-22523 Fab = biological target: T1, ADI-22523 Fab; assay: BLI; tip anti-ID IgG, solution ADI-22523 Fab
T1 construct: anti-CD3 Fab by papain digestion of the IgG
In short: (§1)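 Anti-ID IgG was captured on AHC biosensors, equilibrated in assay buffer for 30 min, then baselined for 60 s. KD = koff/kon came from a 1:1 binding fit.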

ADI-50024 = biological target: T2, ADI-50024; assay: SPR Carterra, yeast anti-ID
T2 construct: anti-CD3 antibody made in CHO cells, captured by anti-human Fc
In short: (§2)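 Goat anti-human Fc was amine-coupled to an HC30M sensor chip, then anti-CD3 antibodies at 100 nM were flowed over discrete spots for 5 min. Anti-idiotype antibodies were run in non-regenerative kinetic cycles at 25° C in HBSTE, with 300s dissociation. Blank-subtracted sensorgrams were fitted 1:1.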

ADI-48587 = biological target: T3, ADI-48587; assay: SPR Carterra, yeast anti-ID
T3 construct: pH-dependent anti-CD3 antibody made in CHO cells
In short: as §2

CTL-62240 = biological target: T4, CTL-62240; assay: SPR Carterra, yeast anti-ID
T4 construct: also called ONO-4685
In short: as §2

ADI-26921 IgG = biological target: T5, ADI-26921 IgG; assay: SPR Carterra, yeast anti-ID
T5 construct: anti-CD3 IgG
In short: as §2

ADI-48576 = biological target: T6, ADI-48576; assay: SPR Carterra, yeast anti-ID
T6 construct: pH-dependent anti-CD3 antibody made in CHO cells
In short: as §2

CTL-62227 = biological target: T7, CTL-62227; assay: SPR Carterra, yeast anti-ID
T7 construct: also called odronextamab
In short: as §2

ADI-76358 = biological target: T8, ADI-76358; assay: SPR Carterra, yeast anti-ID
T8 construct: anti-CD3 antibody made in CHO cells, captured by anti-human Fc
In short: as §2

ADI-67450 = biological target: T9, ADI-67450; assay: SPR Carterra, yeast anti-ID
T9 construct: anti-CD3 antibody made in CHO cells, captured by anti-human Fc
In short: as §2

ADI-70327 = biological target: T10, ADI-70327; assay: SPR Carterra, yeast anti-ID
T10 construct: anti-CD3 antibody made in CHO cells, captured by anti-human Fc
In short: as §2

ADI-76362 = biological target: T11, ADI-76362; assay: SPR Carterra, yeast anti-ID
T11 construct: anti-CD3 antibody made in CHO cells, captured by anti-human Fc
In short: as §2

ADI-70326 = biological target: T12, ADI-70326; assay: SPR Carterra, yeast anti-ID
T12 construct: anti-CD3 antibody made in CHO cells, captured by anti-human Fc
In short: as §2

ADI-76360 = biological target: T13, ADI-76360; assay: SPR Carterra, yeast anti-ID
T13 construct: anti-CD3 antibody made in CHO cells, captured by anti-human Fc
In short: as §2

ADI-74967 = biological target: T14, ADI-74967; assay: SPR Carterra, yeast anti-ID
T14 construct: pH-dependent anti-CD3 antibody made in CHO cells
In short: as §2

ADI-67447 = biological target: T15, ADI-67447; assay: SPR Carterra, yeast anti-ID
T15 construct: anti-CD3 antibody made in CHO cells, captured by anti-human Fc
In short: as §2

ADI-74968 = biological target: T16, ADI-74968; assay: SPR Carterra, yeast anti-ID
T16 construct: pH-dependent anti-CD3 antibody made in CHO cells
In short: as §2

ADI-26909 = biological target: T17, ADI-26909; assay: SPR Carterra, yeast anti-ID
T17 construct: anti-CD3 antibody made in CHO cells, captured by anti-human Fc
In short: as §2

ADI-26915 = biological target: T18, ADI-26915; assay: SPR Carterra, yeast anti-ID
T18 construct: anti-CD3 antibody made in CHO cells, captured by anti-human Fc
In short: as §2

ADI-67445 = biological target: T19, ADI-67445; assay: SPR Carterra, yeast anti-ID
T19 construct: anti-CD3 antibody made in CHO cells, captured by anti-human Fc
In short: as §2

ADI-74965 = biological target: T20, ADI-74965; assay: SPR Carterra, yeast anti-ID
T20 construct: pH-dependent anti-CD3 antibody made in CHO cells
In short: as §2

CTL-62223 = biological target: T21, CTL-62223; assay: SPR Carterra, yeast anti-ID
T21 construct: also called mosunetuzumab
In short: as §2

ADI-26912 = biological target: T22, ADI-26912; assay: SPR Carterra, yeast anti-ID
T22 construct: anti-CD3 antibody made in CHO cells, captured by anti-human Fc
In short: as §2

CTL-62228 = biological target: T23, CTL-62228; assay: SPR Carterra, yeast anti-ID
T23 construct: also called glofitamab
In short: as §2

ADI-48650 = biological target: T24, ADI-48650; assay: SPR Carterra, yeast anti-ID
T24 construct: pH-dependent anti-CD3 antibody made in CHO cells
In short: as §2

ADI-70330 = biological target: T25, ADI-70330; assay: SPR Carterra, yeast anti-ID
T25 construct: anti-CD3 antibody made in CHO cells, captured by anti-human Fc
In short: as §2

ADI-76361 = biological target: T26, ADI-76361; assay: SPR Carterra, yeast anti-ID
T26 construct: anti-CD3 antibody made in CHO cells, captured by anti-human Fc
In short: as §2

ADI-22523 IgG = biological target: T27, ADI-22523 IgG; assay: BLI; tip anti-ID IgG, solution ADI-22523 IgG
T27 construct: anti-CD3 IgG
In short: as §1

ADI-26943 = biological target: T28, ADI-26943; assay: SPR Carterra avidity, yeast anti-ID
T28 construct: anti-CD3 antibody made in CHO cells, captured by anti-human Fc
In short: as §2

ADI-48592 = biological target: T29, ADI-48592; assay: SPR Carterra avidity, yeast anti-ID
T29 construct: pH-dependent anti-CD3 antibody made in CHO cells
In short: as §2

ADI-76357 = biological target: T30, ADI-76357; assay: SPR Carterra avidity, yeast anti-ID
T30 construct: anti-CD3 antibody made in CHO cells, captured by anti-human Fc
In short: as §2

ADI-26916 IgG = biological target: T31, ADI-26916 IgG; assay: SPR Carterra avidity, yeast anti-ID
T31 construct: anti-CD3 IgG
In short: as §2

ADI-26913 IgG = biological target: T32, ADI-26913 IgG; assay: SPR Carterra avidity, yeast anti-ID
T32 construct: anti-CD3 IgG
In short: as §2

ADI-76359 = biological target: T33, ADI-76359; assay: SPR Carterra avidity, yeast anti-ID
T33 construct: anti-CD3 antibody made in CHO cells, captured by anti-human Fc
In short: as §2

ADI-74966 = biological target: T34, ADI-74966; assay: SPR Carterra avidity, yeast anti-ID
T34 construct: pH-dependent anti-CD3 antibody made in CHO cells
In short: as §2

ADI-26906 IgG = biological target: T35, ADI-26906 IgG; assay: SPR Carterra avidity, yeast anti-ID
T35 construct: anti-CD3 IgG
In short: as §2

ADI-26924 = biological target: T36, ADI-26924; assay: SPR Carterra avidity, yeast anti-ID, *koff limit
T36 construct: anti-CD3 antibody made in CHO cells, captured by anti-human Fc
In short: as §2

ADI-26919 = biological target: T37, ADI-26919; assay: SPR Carterra avidity, yeast anti-ID, *koff limit
T37 construct: anti-CD3 antibody made in CHO cells, captured by anti-human Fc
In short: as §2

ADI-26920 IgG = biological target: T38, ADI-26920 IgG; assay: SPR Carterra avidity, yeast anti-ID, *koff limit
T38 construct: anti-CD3 IgG
In short: as §2

T33 sequence (VH, as listed by the source, chain 1 of 2): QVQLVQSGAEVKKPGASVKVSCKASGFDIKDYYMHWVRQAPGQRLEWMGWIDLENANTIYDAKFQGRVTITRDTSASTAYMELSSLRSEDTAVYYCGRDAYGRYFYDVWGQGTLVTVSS
T33 sequence (VL, as listed by the source, chain 2 of 2): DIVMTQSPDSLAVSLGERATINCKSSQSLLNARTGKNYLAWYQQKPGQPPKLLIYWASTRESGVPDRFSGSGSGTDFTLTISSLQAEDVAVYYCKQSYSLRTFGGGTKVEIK
T28 sequence (VH, as listed by the source, chain 1 of 2): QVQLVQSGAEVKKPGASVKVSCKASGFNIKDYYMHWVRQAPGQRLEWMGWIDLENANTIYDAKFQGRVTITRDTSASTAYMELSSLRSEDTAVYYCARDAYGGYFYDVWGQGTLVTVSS
T28 sequence (VL, as listed by the source, chain 2 of 2): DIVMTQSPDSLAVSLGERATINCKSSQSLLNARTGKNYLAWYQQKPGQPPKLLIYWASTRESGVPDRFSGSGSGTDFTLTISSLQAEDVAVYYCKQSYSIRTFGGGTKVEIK
T26 sequence (VH, as listed by the source, chain 1 of 2): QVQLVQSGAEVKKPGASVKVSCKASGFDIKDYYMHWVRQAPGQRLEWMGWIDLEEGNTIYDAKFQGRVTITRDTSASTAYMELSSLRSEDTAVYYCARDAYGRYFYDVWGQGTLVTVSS
T19 sequence (VH, as listed by the source limits assumed, chain 1 of 2): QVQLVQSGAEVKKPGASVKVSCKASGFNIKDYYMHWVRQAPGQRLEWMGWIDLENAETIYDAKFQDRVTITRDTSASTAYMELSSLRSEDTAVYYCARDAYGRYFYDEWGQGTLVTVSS
T19 sequence (VL, as listed by the source limits assumed, chain 2 of 2): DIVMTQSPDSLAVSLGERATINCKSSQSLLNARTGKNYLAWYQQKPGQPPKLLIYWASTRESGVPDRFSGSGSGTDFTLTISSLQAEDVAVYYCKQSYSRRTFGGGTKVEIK
T36 sequence (VH, as listed by the source, chain 1 of 2): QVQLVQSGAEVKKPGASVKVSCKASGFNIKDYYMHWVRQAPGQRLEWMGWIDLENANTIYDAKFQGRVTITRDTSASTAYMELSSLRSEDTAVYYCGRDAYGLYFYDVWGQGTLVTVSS
T9 sequence (VH, as listed by the source limits assumed, chain 1 of 2): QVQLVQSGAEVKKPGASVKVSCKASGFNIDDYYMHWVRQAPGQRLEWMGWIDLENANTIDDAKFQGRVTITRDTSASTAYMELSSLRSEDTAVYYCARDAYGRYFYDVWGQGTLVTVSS
T13 sequence (VH, as listed by the source, chain 1 of 2): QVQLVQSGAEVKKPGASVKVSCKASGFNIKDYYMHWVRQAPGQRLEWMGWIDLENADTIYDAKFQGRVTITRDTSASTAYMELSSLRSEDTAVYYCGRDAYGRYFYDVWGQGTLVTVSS
T15 sequence (VH, as listed by the source limits assumed, chain 1 of 2): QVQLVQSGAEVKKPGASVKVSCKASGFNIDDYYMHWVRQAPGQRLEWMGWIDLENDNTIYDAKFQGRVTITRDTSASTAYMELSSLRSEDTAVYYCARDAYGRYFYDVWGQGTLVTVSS
T5 sequence (VH, as listed by the source limits assumed, chain 1 of 2): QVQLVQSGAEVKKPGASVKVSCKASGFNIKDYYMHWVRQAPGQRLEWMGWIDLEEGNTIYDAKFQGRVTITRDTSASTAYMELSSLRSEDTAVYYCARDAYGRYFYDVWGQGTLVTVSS
T14 sequence (VH, as listed by the source, chain 1 of 2): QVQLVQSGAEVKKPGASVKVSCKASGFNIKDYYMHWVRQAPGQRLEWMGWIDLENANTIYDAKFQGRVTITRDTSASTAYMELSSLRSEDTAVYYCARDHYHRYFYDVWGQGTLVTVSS
T14 sequence (VL, as listed by the source, chain 2 of 2): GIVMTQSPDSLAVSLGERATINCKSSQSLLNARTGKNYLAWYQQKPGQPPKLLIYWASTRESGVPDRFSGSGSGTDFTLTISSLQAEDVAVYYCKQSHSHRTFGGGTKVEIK
T34 sequence (VL, as listed by the source, chain 2 of 2): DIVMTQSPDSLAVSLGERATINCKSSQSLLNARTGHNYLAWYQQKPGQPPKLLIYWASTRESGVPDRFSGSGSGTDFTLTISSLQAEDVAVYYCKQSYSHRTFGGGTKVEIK
T3 sequence (VL, as listed by the source, chain 2 of 2): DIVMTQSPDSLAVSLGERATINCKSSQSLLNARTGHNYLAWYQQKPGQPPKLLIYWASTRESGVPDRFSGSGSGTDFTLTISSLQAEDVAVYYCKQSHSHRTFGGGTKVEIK
T6 sequence (VH, as listed by the source, chain 1 of 2): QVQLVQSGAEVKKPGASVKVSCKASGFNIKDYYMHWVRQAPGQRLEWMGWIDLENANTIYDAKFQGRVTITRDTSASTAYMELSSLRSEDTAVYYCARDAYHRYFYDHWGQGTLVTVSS
T6 sequence (VL, as listed by the source, chain 2 of 2): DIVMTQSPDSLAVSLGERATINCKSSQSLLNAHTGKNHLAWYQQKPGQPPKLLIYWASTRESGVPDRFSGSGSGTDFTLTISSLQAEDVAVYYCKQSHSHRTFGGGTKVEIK
T38 sequence (VH, as listed by the source limits assumed, chain 1 of 2): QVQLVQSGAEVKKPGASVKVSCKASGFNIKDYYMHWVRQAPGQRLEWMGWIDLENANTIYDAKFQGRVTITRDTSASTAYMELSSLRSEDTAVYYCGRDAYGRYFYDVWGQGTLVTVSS
T4 sequence (VH, as listed by the source, chain 1 of 2): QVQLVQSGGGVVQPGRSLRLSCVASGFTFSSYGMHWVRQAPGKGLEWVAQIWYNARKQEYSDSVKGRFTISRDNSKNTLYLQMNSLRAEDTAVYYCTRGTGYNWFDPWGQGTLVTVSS
T4 sequence (VL, as listed by the source, chain 2 of 2): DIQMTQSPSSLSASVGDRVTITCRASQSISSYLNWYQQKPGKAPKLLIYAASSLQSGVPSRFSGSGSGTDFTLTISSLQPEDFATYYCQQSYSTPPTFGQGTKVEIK
T37 sequence (VH, as listed by the source limits assumed, chain 1 of 2): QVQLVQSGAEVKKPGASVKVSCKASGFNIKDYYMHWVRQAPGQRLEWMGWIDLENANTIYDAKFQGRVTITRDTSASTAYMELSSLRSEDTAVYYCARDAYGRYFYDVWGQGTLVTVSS
T20 sequence (VH, as listed by the source, chain 1 of 2): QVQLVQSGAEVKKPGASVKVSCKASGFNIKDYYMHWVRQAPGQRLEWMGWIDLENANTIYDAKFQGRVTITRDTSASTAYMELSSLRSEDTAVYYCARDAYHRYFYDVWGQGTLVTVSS

B1: ADI-30254 (antibody, V domains shown)
VH: EVQLLESGGGLVQPGGSLRLSCAASGFTFSSYAMSWVRQAPGKGLEWVSTISGSGGSTYYADSVKGRFTISRDNSKNTLYLQMNSLRAEDTAVYYCARLGGRRGSGSSYYYYYGMDVWGQGTTVTVSS
VL: not shown
notes: anti-ID IgG
Kd (ADI-22523 Fab): 50.3 nM
binding result (ADI-50024): no binding (tested: up to 200 nM)
binding result (ADI-48587): no binding (tested: up to 200 nM)
binding result (CTL-62240): no binding (tested: up to 200 nM)
binding result (ADI-26921 IgG): no binding (tested: up to 200 nM)
binding result (ADI-48576): no binding (tested: up to 200 nM)
binding result (CTL-62227): no binding (tested: up to 200 nM)
binding result (ADI-76358): no binding (tested: up to 200 nM)
binding result (ADI-67450): no binding (tested: up to 200 nM)
binding result (ADI-70327): no binding (tested: up to 200 nM)
binding result (ADI-76362): no binding (tested: up to 200 nM)
binding result (ADI-70326): no binding (tested: up to 200 nM)
binding result (ADI-76360): no binding (tested: up to 200 nM)
binding result (ADI-74967): no binding (tested: up to 200 nM)
binding result (ADI-67447): no binding (tested: up to 200 nM)
binding result (ADI-74968): no binding (tested: up to 200 nM)
binding result (ADI-26909): no binding (tested: up to 200 nM)
binding result (ADI-26915): no binding (tested: up to 200 nM)
binding result (ADI-67445): no binding (tested: up to 200 nM)
binding result (ADI-74965): no binding (tested: up to 200 nM)
binding result (CTL-62223): no binding (tested: up to 200 nM)
binding result (ADI-26912): no binding (tested: up to 200 nM)
binding result (CTL-62228): no binding (tested: up to 200 nM)
binding result (ADI-48650): no binding (tested: up to 200 nM)
binding result (ADI-70330): no binding (tested: up to 200 nM)
binding result (ADI-76361): no binding (tested: up to 200 nM)
Kd (ADI-22523 IgG): 3.34 nM
Kd (ADI-26943): 27 nM
binding result (ADI-48592): binds
binding result (ADI-76357): binds
Kd (ADI-26916 IgG): 56 nM
binding result (ADI-26913 IgG): binds
Kd (ADI-76359): 27 nM
binding result (ADI-74966): binds
binding result (ADI-26906 IgG): binds
Kd (ADI-26924): 21 nM
Kd (ADI-26919): 33 nM
Kd (ADI-26920 IgG): 21 nM
